Assay [1] has as its target GST-Ubx NES-mutated (Drosophila). Kind of assay: pull-down.
Assay [2] addresses VC-Ubx^NES (NES-mutated full length Ubx fused to the C-terminal fragment of Venus) (Drosophila). Briefly: split reporter.

These results are taken from doi:10.1101/843383.

Regarding “VC-Emb, in S2R+ cell extract (from UniProt Q9TVM2 1-1063) (natural protein)”, the percent loss of pulled-down Emb against wild type GST-Ubx in assay [1] was 30%. As to “VN-Emb (Embargoed fused to the N-terminal fragment of Venus) (from UniProt Q9TVM2 1-1063) (natural protein)”, the percent decrease of BiFC fluorescence in the nucleus against wild type Ubx in assay [2] was found to be 40%.
